# According to the DeepSol protein solubility set:
# Experiment: soluble on expression in E. coli; label from the status in PepcDB or PDB records
row,Sequence,soluble on expression in E. coli
1,MLYANKTVGNTSYKLSKKSIKEQTMLQKNKDLLIEIATRDVKSVFAYFKTTRDGLSMKEAQKRIQVYGRNELTSKRALLAEVMMKLGGMIPGFSKQRVCDELQRETITVSRVECSSSTGLNSELKMMEIPVQELVPGDMIFLSAGDAVPADVRIIYADDLLVNESVLTGNEANIEKFESCYHLERKRFIPLKRMKDYNPLELENVCFKGSHIVSGNAKAIVVSTGKNTYSGILHTCCSRTS,not soluble
2,MDAAKDLRMTQLLQDPHSVREEREKVLEVAIGREVRAFRKQQGITVAELSKLTDLSIGMLSKIENGNTSPSLTTLQTLANALSVPLTAFFKGYEEKREAIHTKAGQGLEIERAGTRAGHQYSLLGHIGSNSSGVIVEPYLITLSTESDTFKTFQHDGIEMIYMLEGKVDYLHGSEIYPLEPGDTLFFDADAPHGPERLVELPTRYLSVICYPQQKKG,not soluble
3,MKPEDFRASATRPFTGEEYLASLRDDREIYIYGDRVKDVTSHPAFRNAAASMARLYDALHDPQSKEKLCWETDTGNGGYTHKFFRYARSADELRQQRDAIAEWSRLTYGWMGRTPDYKAAFGSALGANPGFYGRFEDNAKTWYKRIQEACLYLNHAIVNPPIDRDKPVDQVKDVFISVDEEVDGGIVVSGAKVVATNSALTHYNFVGQGSAQLLGDNTDFALMFIAPMNTPGMKLICRPSYELVAGIAGSPFDYPLSSRFDENDAILVMDKVFIPWENVLIYRDFERCKQWFPQGGFGRLFPMQGCTRLAVKLDFITGALYKALQCTGSLEFRGVQAQVGEVVAWRNLFWSLTDAMYGNASEWHGGAFLPSAEALQAYRVLAPQAYPEIKKTIEQVVASGLIYLPSGVRDLHNPQLDKYLSTYCRGSGGMGHRERIKILKLLWDAIGSEFGGRHELYEINYAGSQDEIRMQALRQAIGSGAMKGMLGMVEQCMGDYDENGWTVPHLHNPDDINVLDRIRQ,not soluble
4,MSKTDVKKSREASGILTLQVNLRERRNFLNLMQNKLFSWKIRFSAIKGKCSQKSKYFRRSRSEDCYVEADLKILSRTRRSRKLPGTVPDFLGKQLIGISSSVVSRVSRSCR,soluble
5,MSLPVFSFEEPTGPHRVGTKLYHWVDHQRNEPYSKNPNDRRELMVQIWYPAAEKSKGDPEPYIRNINELSKGLEKTLSIPAFAFSHMELVKSHSFMDLQLSDSENHYPILLFSHGFNGFRNQNTFQVEELASQGYIVLSIDHTFDAAATVFPGGRTAYVQPINLTDEGDSHIKLWEEDVSFVLNQIEKLNENDETGFFTGRLDTSRIGMFGHSYGGATAAQILAKDSRVKAAINMDGTLYGEILPESGIGKPFLLMNAEEPDEADPFEVRERYGRGLAGGGMSMVIPHTDHTSFTDLHLFSPLLQSPGENPKEVHRIINEFSLAFFDQYVKQKDDGSTLKRLITQYPEVNFKINREGHHHHHH,soluble
6,MTGKILVIGSTGTIGTPLVKALVARGESVKAASRSGKPTNGAEGVRFDYTDHATFADAFDGVDRLFLMLAGGRLDTIDALTPVVEEAARRKVKIVFLSVLGVDADDSIPYRQIELKIIASGTPYVILRPNWFADNFHSYWKAGIEHGQIAVPGGEGKSSFIDVRDIADSAAAALTSDAFNGKAFNLTGPQAFGYAEAAALISQAIGKPVSYSAVSDDVFIGILTGAGVPQDYASFLASIFYPVREGWTAVVTGDAETLTGHAPRSLETYIADNLDRLKG,not soluble
7,LFNYKPGTSVFSIATAGCNFKCKHCQNWEISQSLPEEVPFSELTPEDVVELAKNYLCEGIAYTYTEPTIFYEFMQETAKLAKKHDLFNVMVTNGYIEKEPLKKLEIDAMNIDIKGNSEFYKKICLAELEPVLETCRLAKKLGIHIEITNLVVPTYNDNPKYIESIINFVKDELGVDTPLHFTAFYPHYKLTSVPSTRMETIKKARDMALNAGLHYVYAGNV,not soluble
8,MSRVCQVTGKRVQTGNNVSHANNKTRRRFLPNLHKRRFWVASENRWVKLRVSTCAVRTIDKNGIDAVLAELRASGEKVLEHHHHHH,not soluble
9,SMVQSSGPMDVTSLTEELKKLAKQGWYWGPITRWEAEGKLANVPDGSFLVRDSSDDRYLLSLSFRSHGKTLHTRIEHSNGRFSFYEQPDVEGHTSIVDLIEHSIGDSENGAFCYSRSRLPGSATYPVRLTNPVSRFMQVRS,soluble
10,MSLNILDVMKIPAFENANLIAGKAGGEREVQHVNMMDAPDIVDFLHKNELLVTTAYHLKDHPHQLSELIRQMAKRGCAGLGIKTKRYLEDIPKEIIELADSYAFPIIELPEHIRLGDIVNATLSHILDMRSNEGHHHHHH,soluble
11,MFDSLAKAGKYLGQAAKLMIGMPDYDNYVEHMRVNHPDQTPMTYEEFFRERQDARYGGKGGARCC,soluble
12,GKSPEAECNKITEEPKCSEEKICSWHKEVKAGEKNCQFNSTKASKS,soluble
13,MGSDKIHHHHHHMTNTETIQSLIDSGEGYNVEFKVRVPSKVRELTEEICAFANADGGYLLIGVDDNGQIIGTGLENDKRSAIQGSISEISPALHCDMYAVNIEDKTVWVIDVPSGKDKPYIFSGSIFVREGANSQKLRTVEEMRSFFQECNKIFFDAIPCSWFNIYTDADEQAIKDFRTEAKLSPSTANKQIFENLELFTDNGVAKNGTAMFFGKQPERKFPHAVTRCVLFKGTTKVYIIDDKTFGGPLYQQYLQAMAWLESKLQVAYKIEGAGPREEIWEIPLTVFKEAIINALSHRDYYEQGATITIEMFDDRVEVSNPGGLLPIVAKDFGHKSMTRNPLIFGLFTRMHLVERVASGIPRMQEAMKEANLPEPDFHTDGMFTVIFKRGISIKNDTVNDTVNDTVNDTVNSKEKEVLKIIQKYPGLNSSKIAELIKKSIPTAKRHLNSLVKSGLIEFRGAQKTGGYYIINQQ,not soluble
14,MKRVDSVISLIYSLSKSEKKHFSLQVIKDKEEKDYLVIYDIIIKSKQPNGNTVKEEFYRRKPNGSFEVSIQYLYEKLTDTLLTLRKKKDIYYDLLNNLCKARMLYERSLFEECFEILSNTIEQAQFYENNEILTIALKLELEYLLRLNFPNMTEQELFHKHFIQNEALKKIRKITEQSSLHNLLKYRLSHIGSIRTVKQKQDMNDLMVNELYIAASSDSEGNFELTRNHKLFQANYLMGAGDYRAALNSYKELDSLFEQNQQFWSNPPIYYLSVLEGVLGSLRSVSNYDEIPYFLDKLRKLISDSTSLEFKVNATCLLFQYELFPYLDKGDFSKCTQLMADYQEILYDKEAWLGPIRKSELLLYTTLVHIGNQEYKTAKKYISNAIIDHNIKYLPLMRTIRLVRLIVFYEVQEHELIQYESRSITRSLSSPKEQTFKTERIILWFLNKRNIPILKKDREAFWEKLSPEIHELYNNKYESQLLRLFDFTAWMESKIRKEKLSEVLRARASAKEC,not soluble
15,MGSDKIHHHHHHMAGLERGELRQALLAEVKKVCAGQGPEAVSISKIGKSLGVSSGAPFRLFPSREHIFAALIESEMERLDATFERIWSCKTTDPVLRLTDICQAYVDHARTEPAMFRLAFSVSAKAMGAVKLQKIGEDVYEKVQRAVAACVPRHTTTDQVELKSYLLWSTIHGHVMLCMTGQMDDQSIDLPDEIVVASAVQGILKAG,not soluble
16,GDSLTAQEALATLALSGDDDGPRQTRSYQVMNGIAVLPVSGTLVSRTRALQPYSGMTGYNGIIARLQQAASDPMVDGILLDMDTPGGMVAGAFDCADIIARVRDIKPVWALANDMNCSAGQLLASAASRRLVTQTARTGSIGVMMAHSNYGAALEKQGVEITLIYSGSHKVDGNPYSHLPDDVRETLQSRMDATRQMFAQKVSAYTGLSVQAVLDTEAAVYSGQEAIDAGLAD,not soluble
17,MLNTSDIGKVFPSVTAVVEKGRLRFFAKAIGENNPIYTDEAAAKDAGYESLPMPPTFFFSLKMDVPNPFENYEKVGASLAKILHANQAFVYHQSVVAGDSLTFESHIADIYDKKAGALEFLVEKTKVSNQRGQHVADMTTTLVVRNLEHHHHHH,not soluble
18,MFTSKPAFKIKNKASKSYRNTAVSKKLKEKRLAEHVRPSCFNIIRPLKKDIQIPVPSSRFLNKIQIHRIASGSQNTQFRQFNKTSIKSSKKYLNSFMAFRAYYSQFGSGVKQNVLSSLLAEEWHADKMQHGIWDYFAQQYNFINPGFGFVEWLTNNYAEVRGDGYWEDVFVHLAL,not soluble
19,MAHHHHHHMEGKKCFYITEKGKKQNFRNIKLITFDLDHTIWNIDGLLNYADKECYEYMKKNYRRLYDYLQEEYQLSITNLVKQLLENKIEDNNDGVQTLTNMRIDALKFLAKKTNYDEGKFVSEIQELWKEKKNDVHLFISPGTLEYLRELKRRGYTLGAITNGDSDVNGIKFLNEIFTFVIRSMDYNHSKPSVEIFNIAENILKKKNFHFEIHQWMHVGDDVYTDIMGAKNKNINCAWITMFRDGSEVPPNDWYPYLKLKLEENGDSHLSQYDPFADGLFSRFRRRDVVLPYEYIDIEIRHCRDLDAILA,soluble
20,METRTYAIGVEATMDVIGGKWKPIILCNLRHGAMRPSDLKRGITGISQKMLTQQLRELEEDNIIERKVYNQVPPKVEYYLSDYGQSLSAVLDNLCNWGESHVAHLQEQGQEIYLKCED,not soluble
21,MSRRSRSRSRSPKRDREERKRREDRDRDRERKRDRKDRERKRRHRSSSSEGSQAEPHQLGSIFREERRRRERNESPKLPPPPPPPPSDPPVDTSIPFDVSTLNEPTKKWLEEKIVEQVSARVHQLEAMMAEKATSARNEMEKMLRAQIEAEMAVELAECKKRDEESRKKCKQLEAELERKVLEAEESRKKFEEDRLAMLEQKSQLERDRAELARQKSDMKKNEQQAILNKSGNSRAPIKFKFGK,not soluble
22,MLDLFADAEPWQEPLAAGAVILRRFAFNAAEQLIRDINDVASQSPFRQMVAPGGYTMSVAMTNCGHLGWTTHRQGYLYSPIDPQTNKPWPAMPQSFHDLCQRAATAAGYPDFQPDACLINRYAPGAKLSLHQDKDEPDLRAPIVSVSLGLPAIFQFGGLKRNDPLKRLLLEHGDVVVWGGESRLFYHGIQPLKAGFHPLTTDCRYNLTFRQAGKKE,not soluble
23,MGSDKIHHHHHHMQRDDDSFMLVPSKGEDYMAGWHLDTKMAQDIVARTMRIIDTNINVMDARGRIIGSGDRERIGELHEGALLVLSQGRVVDIDDAVARHLHGVRQGINLPLRLEGEIVGVIGLTGEPESLRKYGELVCMTAEMMLEQSRLMHLLAQDSRLREELVMNLIQAEEHTPALNEWAQRLGIDLNQPRVVAMIEVDSGQLGVDSAMAELQQLQNALTTPDRNNLVAIVSLTEMVVLKPALNSFGRWDADDHVRRVEQLIARMKENGQLRFRVALGNFFTGPGSIARSYRTARTTMMVGKQRMPESRSYFYQDLMLPVLLDSLRGGWQANELARPLARLKAMDNNGLLRRTLQAWFRHNVQPLATSKALFIHRNTLEYRLNRISELTGLDLGSFDDRLLLYIALQLDEQR,not soluble
24,MKIVAFNGSPRKGGNTELLIKEVFKPIQEAGIETELVQLGGKLLRGCASCYTCFKTKDGKCAIKTDPMNEFIQKAQEADGIILASPTYYGSVSAEMKAFMDRLGLTTIGQGRTLTRKVGAAVISVRRGGAVTVYDELNRFMLGSGMIVPGSTYWNFGIGEMPGEVFDDAEGLRNMKDLGVQLAWLLKAIHNLEHHHHHH,soluble
